Laboratory results reported in the nanobody polyreactivity screen of Harvey et al. (2022).

Assay: yeast display, Sf9 membrane polyspecificity reagent, FACS + sequencing; frameworks hold sequencing errors
Procedure, shortened: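 Nanobodies came from a synthetic yeast display library in Saccharomyces cerevisiae BJ5465, induced with galactose for 36–48 hours and stained for 1 hour at 4 °C with 10% biotinylated, detergent-solubilized Sf9 membrane reagent. Cells were enriched on streptavidin microbeads and then FACS-sorted, with low and high (top ~1%) gates set on anti-HA fluorescence for expression and streptavidin fluorescence for reagent binding. Each polyreactivity label reflects the gate a clone came from. Genes were amplified by colony PCR, sequenced by MiSeq 2 × 250 and filtered by CDR length.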

Row | Sequence | polyreactivity (PSR sort gate)
1 | QVQLVESGGGLVQAGGSLRLSCAASGFTFVRNAMGWYRQAPGKERELVAAISDRGGTYYADSVKGRFTISRDNAKNTVYLQMNSLKPEDTAVYYCAAKYWYPYQYSHGSFYYWGQVTQVTVSS | high polyreactivity
2 | QVQLVESGGGLVQAGGSLRLSCAASGFTFVRYAMGWDSQAPGTERELVAAMSRSGGSTYYADSVKGRFTISRDNAKNTVYLQMNSLKPEDTAVYYCAADIKGRTGDAYDYWGQGTQVTVSS | low polyreactivity
3 | QVQLVESGGGLVQAGGSLRLSCAASGFTFVRYAMGWYRQAPGKERELVAAITRSGGSTYYADSVKGRFTISRDNAKNTVYLQMNSLKPEDTAVYYCNARRSRSRYDYWGQGTQVTVSS | high polyreactivity
4 | QVQLVESGGGLVQAGGSLRLSCAASGFTFVRYAMRWYRQAPGTERELVAAISYSGGRTYYADSVKGRFTISRDTAKNTVYLQMNSLKPEDTAVYYCAADAFRGFYWGQGTQVTVSS | high polyreactivity
5 | QVQLVESGGGLVQAGGSLRLSCAASGFTFVSNAMGWYRQAPGKERELVADITSDGSTNYADSVKGRFTISRDNAKNTVYLQMNSLKPEDTAVYYCATDQRSHTWVNQFDYWGQGTQVTVSS | low polyreactivity
6 | QVQLVESGGGLVQAGGSLRLSCAASGFTFVSYAMGWYRQAPGKERELVAAISSRVGSTYYADSVKGRFTISRDNAKNTVYLQMNSLKPEDTAVYYCAASFTDRVTLDYFRSYAFEYWGQGTQVTVSS | low polyreactivity
7 | QVQLVESGGGLVQAGGSLRLSCAASGFTFVSYAMGWYRQATGKERELVAVIDNSDGDTYYADSVKGRFTISRDNAKNTVYLQMNSLKPEDTAVYYCAADAVIEWTDWYSAWWYYYWGQGTQVTVSS | low polyreactivity
8 | QVQLVESGGGLVQAGGSLRLSCAASGFTFVTYAMGWYRQAPGKERELVAAISSSGRTYYADSVKGRFTISRDNAKNTVYLQMNSLKPEDTAVYYCAVQGAWRSFYYWGQGTQVTVSS | high polyreactivity
9 | QVQLVESGGGLVQAGGSLRLSCAASGFTFVWYAMGWYRPAPGKERELVAAISRRGTRTYYADSVKGRFTISRDNAKNTVYLQMNSLKPEDTAVYYCAASNGYQAVTYDYWGQGTQVTVSS | high polyreactivity
10 | QVQLVESGGGLVQAGGSLRLSCAASGFTFVWYVMGWYRQAPGKEREFVAAITSTGGNTNYADSVKGRFTISRDNAKNTVYLEMNSLKPEDTAVYYCAKRYGFPPGYYYWGQGTQVTVSS | low polyreactivity
11 | QVQLVESGGGLVQAGGSLRLSCAASGFTFVYNALGWYRQAPGKERELVAAISGSGGSTYYADSVKGRFTISRDNAKNTVYLQMNSLKPEDTSVYYCNAVPSWRWEYDHWGQGTQVTVSS | high polyreactivity
12 | QVQLVESGGGLVQAGGSLRLSCAASGFTFVYNAMGWYRQAPGKERELVAAINSGGRTNYADSVKGRFTISRDNAKNTVYLQMNSLKPEDTAVYYCAAEVTSFSFGGDATEYYWGQGTQVTVSS | low polyreactivity
13 | QVQLVESGGGLVQAGGSLRLSCAASGFTFVYNAMGWYRQAPGKERELVAAISKSGDRTYYADSVKGRFTISRDYAKNTVYLQMNSLKPEDTAVYYCNAKVVHGYQRFNYWGQGTEVTVSS | high polyreactivity
14 | QVQLVESGGGLVQAGGSLRLSCAASGFTFVYYAMGWYRPAPGKERELVAAISRGGSTYYADSVKGRFTISRDNAKNTVYLQMNSLKPEDTAVYYCNAKKSGLYVSYPAYDYWGQGTQVTVSS | low polyreactivity
15 | QVQLVESGGGLVQAGGSLRLSCAASGFTFVYYAMGWYRQAPGKERELVAGISSSAGSTYYADSVKGRFTISRDNAKNTVYLQMNSLKPEDTAVYYCNAEYYWWPFDYWGQGTQVTVSS | high polyreactivity
16 | QVQLVESGGGLVQAGGSLRLSCAASGFTFVYYAMGWYRQAPGKEREMVAGISSSDTTSYADSVKGRFTISRDNAKNTVYLQMNSLKPEDTEVYYCATRYWRRYPSTWSYPYYYWGQGTQVTVSS | high polyreactivity
17 | QVQLVESGGGLVQAGGSLRLSCAASGFTFVYYAMGWYRQAPGTERELVAAISQSGSSTYYADSVKGRFTISRDNAKNTVYLQMNTLKPEDTAVYYCAAQEFQKRLGGSWWRYDYWGQGTQVTVSS | high polyreactivity
18 | QVQLVESGGGLVQAGGSLRLSCAASGFTFVYYVMGWYRQAPGKERELVAAINAGGGSTYYADSVKGRFTISRDNAKNTVYLQMNSLKPEDTAVYYCYARVRVRLGRNWSSYYYWGQGTQVNVSS | high polyreactivity
19 | QVQLVESGGGLVQAGGSLRLSCAASGFTFWEYAMGWYRQAPGKERELVAAISRGTSTYYADSVKGRFTISRDNAKNTVYLQMNSLKPEDTAVYYCAAAPSYYPARHGYWGQGTQVTVSS | low polyreactivity
20 | QVQLVESGGGLVQAGGSLRLSCAASGFTFWLYAMGWYRQAPGKERELVAAISRNSVSTYYADSVKGRFTISRDNAKNTVYLQMNSLKPEDTAVYYCAVDQYATDDYWGQGTQVTVSS | high polyreactivity
21 | QVQLVESGGGLVQAGGSLRLSCAASGFTFWRNAMGWYRQAPGKERELVAAISSGTGRTYYADSVKGRFTISRDNAKNTVYLQMNSLKPEDTAVYYCAKVNGRTSYGTSTRDYWGQGTQVTVSS | low polyreactivity
22 | QVQLVESGGGLVQAGGSLRLSCAASGFTFWRNTMGWYRQAPGKEREFVAGISGSGGSTYYADSVKGRFTISRDNAKNTVYLQMNSLKPEDTAVYYCAAVYRFSRTFYTPGYDYWGQGTQVTVSS | high polyreactivity

Row | Sequence | polyreactivity (PSR sort gate)
23 | QVQLVESGGGLVQAGGSLRLSCAASGFTFWRYAMGWYRQAPGKERELVAVITRRGGSTYYADSVKGRFTISRDNAKNTVYLQMNSLKPEDTAVYYCAAGPVSQQHSPGPHDYWGQGTQVTVSS | high polyreactivity
24 | QVQLVESGGGLVQAGGSLRLSCAASGFTFWSYAMGWYRQAPGKERELVAGITIDGNTYYADSVKGRFTISRDNAKNTVYLQMNSLKPEDTAVYYCATPVYRSTYEYDYWGQGTQVTVSS | low polyreactivity
25 | QVQLVESGGGLVQAGGSLRLSCAASGFTFWSYGMGWYRQAPGKERELVAAISWSGGRTYYADSVKGRFTISRDNAKNTVYLQMNSLKPDDTAVYYCAAQPYYYFDEYTQYDYWGQGTQVTVSS | high polyreactivity
26 | QVQLVESGGGLVQAGGSLRLSCAASGFTFWTYAMGWYRQAPGKERELVAAISRSAGRTYYADSVKGRFTISRDNAKNTVYLQMNSLKPEDTAVYYCNARAGYVRYGYWGQGTQVTVSS | high polyreactivity
27 | QVQLVESGGGLVQAGGSLRLSCAASGFTFWWYAMGWYRQAPGKERELVASIDTRGGTYYADSVKGRFTISRDNAKNTVYLQMNSLKPEDSAVYYCNADGAYGNYRGGYWGQGTEVTVSS | high polyreactivity
28 | QVQLVESGGGLVQAGGSLRLSCAASGFTFWWYAMGWYRQAPGKERQLVAGITSGASTYYADSVKGRYTISRDNAKNTVYLQMNSLKPEDTAVYYCAADWLGWYQPYDYWGQGTQVTVSS | low polyreactivity
29 | QVQLVESGGGLVQAGGSLRLSCAASGFTFWYYAMGWYRQAPGKERELVAAISSNGASTYYADSVKGRFTISRDNAKNTVYLQMNSLKPEDTAVYYCNAYYDTWDSAYDYDYWGQGTQVTVSS | low polyreactivity
30 | QVQLVESGGGLVQAGGSLRLSCAASGFTFWYYAMGWYRQAPGKERELVAAITEDGDSTYYADSVKGRFTISRDNAKNTVYLQMNSLKPEDTAVYYCNTDLTFNGTSGDYDYWGQGSQVTVSS | low polyreactivity
31 | QVQLVESGGGLVQAGGSLRLSCAASGFTFWYYVMGWYRQAPGKERELVAAITSSGDSTYYADSVKGRFTISRDNAKNTVYLQMNSLKPEDTAVYYCAAQRYPFERDYWGQCTQVTVSS | high polyreactivity
32 | QVQLVESGGGLVQAGGSLRLSCAASGFTFYANAKGWYRQAPGKERELVAAIDQSGTSTNYADSVKGRFTISRDNAKNTVYLQMNSLKPDDTAVYYCAADSSFYYYPLILFWGDYWGQGTQVTVSS | low polyreactivity
33 | QVQLVESGGGLVQAGGSLRLSCAASGFTFYAYAMGWYRPAPGKERELVAGISWSGGSTYYADSVKGRFTISRDNAKNTVYLQMNSLKPEDTAVYYCAAYSIAELWEYYYWGQGTQVTVSS | low polyreactivity
34 | QVQLVESGGGLVQAGGSLRLSCAASGFTFYDNAMGWYRQAPGKERELVAAITSNGVNTHYADSVKGRFTISRDNAKNTVYLQMNSLKPEDTAVYYCAADRDPEVTYQKYEYWGQGTQVTVSS | low polyreactivity
35 | QVQLVESGGGLVQAGGSLRLSCAASGFTFYDYAMGWYRQAPGKERELVAAISSGTSTYYADSVKGRFTISRDNAKNTVYLQMNSLKPEDTAVYYCAAAGNRPWSITPVRKRYGYNYWGQGTQVTVSS | high polyreactivity
36 | QVQLVESGGGLVQAGGSLRLSCAASGFTFYDYAMGWYRQAPGKERELVAVITRRGGSTYYADSVKRRFTISRDNAKKTVDLQMNSLKPEDTAVYDCAADWRGWSFVRGDDYWGHGTQVTVSS | high polyreactivity
37 | QVQLVESGGGLVQAGGSLRLSCAASGFTFYDYSMGWYRQAPGTERELVAASSDSGGITYYADSVKGRFTISRDNAKNTVYLQMNRLKPEDTAVYYCAADFATPGPEYDYWGQGTQVTVSS | low polyreactivity
38 | QVQLVESGGGLVQAGGSLRLSCAASGFTFYFYAMGWYRQAPGKERELVAAISRGGSTTYADSVKGRFTISRDNAKNTVYLQMNSLIPEDTAVSYCKADIYTWFQIGGYQYDYWGQGTQVTVSS | low polyreactivity
39 | QVQLVESGGGLVQAGGSLRLSCAASGFTFYGNAMGWYSQAPGKERELVAAISSGGSTNYADSVKGRFTISRDNAQNTVSLQMNSLKPEDTAVYYCAASSPRQVSFPYASIGFDYWGQGTQVTVSS | low polyreactivity
40 | QVQLVESGGGLVQAGGSLRLSCAASGFTFYGYAMAWYRQAPGTERELVAAITRRGGNTYYADSVKGRFTISRDNAKNTVYLQMNSLKPEDTAVYYCNAVLRYGHGPYQKGDYWGQGSQVTVSS | high polyreactivity
41 | QVQLVESGGGLVQAGGSLRLSCAASGFTFYGYAMGWYRQAPGKERELVAAITSGGITNYADSVKGRFTISRDNAKNTVYLQMNSLKPEDTAVYYCNVKRRVSGYYGYKYYYWGQGTQVTVSS | high polyreactivity
42 | QVQLVESGGGLVQAGGSLRLSCAASGFTFYGYAMVWYRQAPGKERELLAAITFRGDRTYYADSVKGRFTISRDIAKNTVYLQMNSLKPEDTAVYYCAAERPSGWYSYLSLYIVRRGYWGQGTQVTVSS | low polyreactivity
43 | QVQLVESGGGLVQAGGSLRLSCAASGFTFYHNALGWYRQAPGKERELVATITARGGRTYYADSVKGRFTISRDNAKNTVYLQMNSLKPEDTAVYYCNVKASRGYTYEYDYWGQGTQVTVSS | high polyreactivity
